{"source": "paper PMC3336205", "about": "“The generation and evaluation of two panels of epitope-matched mouse IgG1, IgG2a, IgG2b and IgG3 antibodies specific for Plasmodium falciparum and Plasmodium yoelii merozoite surface protein 1–19 (MSP1_(19))” (Experimental Parasitology, 2012)", "binders": {"B1": {"name": "mouse IgG1-B10 (PyMSP1_(19)-specific recombinant mouse IgG1) (antibody, V domains shown)", "VH": "QVQLQQSGPELVKPGASVKVSCKASGYAFTSYNMYWVKQSHGKSLEWIGYIDPYNGGTSYNQKLKGKATLTVDKSSSTAYIHLNSLTSEDSAVYYCTIHYYGYGGFAYWGQGTTVTSS", "VL": "DIELTQSTAIMSASPGEKVTMTCSASSSVRYMYWYQQKPGSSPRLLIYDTSKLASGVPVRFSGSGSGTSYSLAISRMEAEDAASYYCQQWSSYPPTLGGGTKLEIK", "notes": "VH of B10 (anti-PyMSP1_19), from pB10-VH/5; mouse IgG1 heavy-chain constant region, amplified from BALB/c genomic DNA; VL of B10, from pB10-VL/10; mouse kappa light chain constant region, amplified from BALB/c genomic DNA; Plasmids pVH-B10-mIgG1 and pVL-B10-mouse kappa; source: HEK-293T, stably transfected; culture supernatant"}, "B2": {"name": "mouse IgG3-B10 (PyMSP1_(19)-specific recombinant mouse IgG3) (antibody, V domains shown)", "VH": "B1 VH", "VL": "B1 VL", "notes": "VH of B10 (anti-PyMSP1_19), from pB10-VH/5; mouse IgG3 heavy-chain constant region, amplified from genomic DNA; VL of B10, from pB10-VL/10; mouse kappa light chain constant region, amplified from BALB/c genomic DNA; Plasmids pVH-B10-mIgG3 and pVL-B10-mouse kappa; source: CHO-K1, stably transfected; culture supernatant"}, "B3": {"name": "mouse IgG2b-B10 (PyMSP1_(19)-specific recombinant mouse IgG2b) (antibody, V domains shown)", "VH": "B1 VH", "VL": "B1 VL", "notes": "VH of B10 (anti-PyMSP1_19), from pB10-VH/5; mouse IgG2b heavy-chain constant region, amplified from genomic DNA; VL of B10, from pB10-VL/10; mouse kappa light chain constant region, amplified from BALB/c genomic DNA; Plasmids pVH-B10-mIgG2b and pVL-B10-mouse kappa; source: CHO-K1, stably transfected; culture supernatant"}, "B4": {"name": "mouse IgG2a-B10 (PyMSP1_(19)-specific recombinant mouse IgG2a) (antibody, V domains shown)", "VH": "B1 VH", "VL": "B1 VL", "notes": "VH of B10 (anti-PyMSP1_19), from pB10-VH/5; mouse IgG2a heavy-chain constant region, amplified from genomic DNA; VL of B10, from pB10-VL/10; mouse kappa light chain constant region, amplified from BALB/c genomic DNA; Plasmids pVH-B10-mIgG2a and pVL-B10-mouse kappa; source: CHO-K1, stably transfected; culture supernatant"}, "B5": {"name": "mouse IgG1-C1 (PfMSP1_(19)-specific recombinant mouse IgG1) (antibody, V domains shown)", "VH": "EVQLVQSGPEVKKPGASVKVSCKTSGYSFTSYDINWVRQAPGQGLEWMGRISPYNGKTDYTQTLRGRVTMSTDTSTTTVYLELRSLKSDDTAVYYCAREGVWFAELLSWGEGTLVTVSS", "VL": "DIVMTQTPGTLSLSPGERATLSCRASQSVSGNYLAWYQQKPGQAPRLLIHGSSDRAAGTPDRFSGRGSGTDFTLTISRLEPEDFAVYYCQQYCSSPFTFGPGTKVEIK", "notes": "VH of C1 (anti-PfMSP1_19), as the VH of m7; mouse IgG1 heavy-chain constant region, amplified from BALB/c genomic DNA; VL of C1, as the VL of m7; mouse kappa light chain constant region, amplified from BALB/c genomic DNA; Plasmids pVH-C1-mIgG1 and pVL-C1-mouse kappa; also called mIgG1-C1; murine IgG1-C1; source: HEK-293T, stably transfected; culture supernatant, and purified (protein G-Sepharose)"}, "B6": {"name": "mouse IgG3-C1 (PfMSP1_(19)-specific recombinant mouse IgG3) (antibody, V domains shown)", "VH": "B5 VH", "VL": "B5 VL", "notes": "VH of C1 (anti-PfMSP1_19), as the VH of m7; mouse IgG3 heavy-chain constant region, amplified from genomic DNA; VL of C1, as the VL of m7; mouse kappa light chain constant region, amplified from BALB/c genomic DNA; Plasmids pVH-C1-mIgG3 and pVL-C1-mouse kappa; also called mIgG3-C1; source: CHO-K1, stably transfected; culture supernatant, and purified (protein G-Sepharose)"}, "B7": {"name": "human IgG1-C1 (JS1), parental human IgG1 antibody (antibody, V domains shown)", "VH": "B5 VH", "VL": "B5 VL", "notes": "VH of C1 (anti-PfMSP1_19); human IgG1 heavy-chain constant region; VL of C1; light-chain constant region of pVKExpress C1; IgG1; also called hIgG1-C1; (h)IgG1-C1"}, "B8": {"name": "mouse IgG2b-C1 (PfMSP1_(19)-specific recombinant mouse IgG2b) (antibody, V domains shown)", "VH": "B5 VH", "VL": "B5 VL", "notes": "VH of C1 (anti-PfMSP1_19), as the VH of m7; mouse IgG2b heavy-chain constant region, amplified from genomic DNA; VL of C1, as the VL of m7; mouse kappa light chain constant region, amplified from BALB/c genomic DNA; Plasmids pVH-C1-mIgG2b and pVL-C1-mouse kappa; also called mIgG2b-C1; source: CHO-K1, stably transfected; culture supernatant, and purified (protein G-Sepharose)"}, "B9": {"name": "mouse IgG2a-C1 (PfMSP1_(19)-specific recombinant mouse IgG2a) (antibody, V domains shown)", "VH": "B5 VH", "VL": "B5 VL", "notes": "VH of C1 (anti-PfMSP1_19), as the VH of m7; mouse IgG2a heavy-chain constant region, amplified from genomic DNA; VL of C1, as the VL of m7; mouse kappa light chain constant region, amplified from BALB/c genomic DNA; Plasmids pVH-C1-mIgG2a and pVL-C1-mouse kappa; also called mIgG2a-C1; source: CHO-K1, stably transfected; culture supernatant, and purified (protein G-Sepharose)"}}}
{"target": "T1, recombinant PyMSP1_(19)-GST (Plasmodium yoelii yoelii (strain not …, UniProt P13828))", "T1 construct": "merozoite surface protein 1 (MSP1), Plasmodium yoelii, C-terminal 19-kDa region (MSP1_19), homologous to PfMSP1_19; also called P. yoelii MSP1_(19); source: recombinant, purified (Lewis, 1989)", "T1 sequence (P13828 whole entry, looked up)": "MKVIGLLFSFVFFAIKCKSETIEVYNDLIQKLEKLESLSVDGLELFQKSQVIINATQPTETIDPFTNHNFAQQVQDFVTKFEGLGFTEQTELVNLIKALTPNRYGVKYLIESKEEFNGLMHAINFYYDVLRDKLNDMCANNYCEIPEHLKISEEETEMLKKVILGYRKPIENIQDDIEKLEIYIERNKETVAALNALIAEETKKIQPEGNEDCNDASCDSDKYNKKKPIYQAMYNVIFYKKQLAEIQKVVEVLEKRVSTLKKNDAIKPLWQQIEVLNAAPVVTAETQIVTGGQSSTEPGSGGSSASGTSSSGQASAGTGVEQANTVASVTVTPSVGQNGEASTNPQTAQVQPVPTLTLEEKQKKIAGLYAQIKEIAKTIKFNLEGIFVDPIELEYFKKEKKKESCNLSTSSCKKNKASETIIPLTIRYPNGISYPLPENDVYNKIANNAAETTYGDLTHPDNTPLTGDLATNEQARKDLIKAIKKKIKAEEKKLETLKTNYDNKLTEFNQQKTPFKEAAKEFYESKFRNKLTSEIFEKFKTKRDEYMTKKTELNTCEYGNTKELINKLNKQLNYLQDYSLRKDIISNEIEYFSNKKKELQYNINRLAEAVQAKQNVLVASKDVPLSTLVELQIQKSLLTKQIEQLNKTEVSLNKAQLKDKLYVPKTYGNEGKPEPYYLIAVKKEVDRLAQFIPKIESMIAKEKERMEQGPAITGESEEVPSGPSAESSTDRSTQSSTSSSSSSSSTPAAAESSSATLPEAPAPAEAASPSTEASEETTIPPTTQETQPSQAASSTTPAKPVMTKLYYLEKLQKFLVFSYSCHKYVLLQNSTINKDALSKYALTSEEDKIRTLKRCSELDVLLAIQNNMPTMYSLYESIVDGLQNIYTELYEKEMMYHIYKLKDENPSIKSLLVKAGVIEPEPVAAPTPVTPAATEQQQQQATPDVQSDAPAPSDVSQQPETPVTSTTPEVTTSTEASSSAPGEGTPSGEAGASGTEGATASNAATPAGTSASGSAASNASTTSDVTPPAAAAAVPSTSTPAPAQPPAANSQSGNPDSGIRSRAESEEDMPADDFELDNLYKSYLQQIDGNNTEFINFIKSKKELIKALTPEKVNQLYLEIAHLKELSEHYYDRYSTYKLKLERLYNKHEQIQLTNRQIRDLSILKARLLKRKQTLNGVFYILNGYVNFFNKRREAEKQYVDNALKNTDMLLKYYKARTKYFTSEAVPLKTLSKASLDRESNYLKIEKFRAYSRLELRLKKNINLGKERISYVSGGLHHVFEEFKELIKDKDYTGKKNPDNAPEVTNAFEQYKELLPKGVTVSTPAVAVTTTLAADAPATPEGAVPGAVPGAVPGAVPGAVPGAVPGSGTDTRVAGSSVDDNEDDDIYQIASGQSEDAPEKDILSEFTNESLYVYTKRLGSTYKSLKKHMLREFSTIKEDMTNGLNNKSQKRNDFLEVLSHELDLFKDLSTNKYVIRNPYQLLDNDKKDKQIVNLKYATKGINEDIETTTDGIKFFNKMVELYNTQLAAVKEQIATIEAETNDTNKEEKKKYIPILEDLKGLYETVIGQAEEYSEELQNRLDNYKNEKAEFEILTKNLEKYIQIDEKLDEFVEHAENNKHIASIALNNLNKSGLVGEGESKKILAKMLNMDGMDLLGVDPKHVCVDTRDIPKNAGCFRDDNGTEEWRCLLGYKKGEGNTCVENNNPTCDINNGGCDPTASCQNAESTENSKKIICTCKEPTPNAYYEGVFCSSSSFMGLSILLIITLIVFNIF", "test": "ELISA; five micrograms of recombinant purified antigen (PfMSP1_19-GST or PyMSP1_19-GST) coated; culture supernatant of secreting clones; detected with HRP anti-mouse IgG Fc-specific or anti-mouse kappa light chain secondary antibodies; read at 450 nm", "conditions": "one partner purified"}
{"binder": "B1", "binding result": "binds"}
{"binder": "B2", "binding result": "binds"}
{"binder": "B3", "binding result": "binds"}
{"binder": "B4", "binding result": "binds"}
{"target": "T2, recombinant PfMSP1_(19)-GST (Plasmodium falciparum, strain not …, UniProt P04933)", "T2 construct": "merozoite surface protein 1 (MSP1), Plasmodium falciparum, C-terminal 19-kDa region (MSP1_19); also called C-terminal 19-kDa region of Plasmodium falciparum merozoite surface protein 1; source: recombinant, purified (Burghaus and Holder, 1994)", "test": "SPR; BIAcore X; PfMSP1_19-GST (50 μg/ml) amine-coupled to a CM5 chip; purified IgGs injected at 2, 1, 0.5, 0.25 and 0.125 μM, 50 μL at 10 μL/min; control Ag in flow cell 2", "conditions": "both partners purified", "units": {"Ka": "M⁻¹", "Kd": "nM"}}
{"binder": "B5", "Ka": "4.48e+07", "Kd": 23}
{"binder": "B6", "Ka": "2.33e+07", "Kd": 31.1}
{"binder": "B7", "Ka": "3.94e+07", "Kd": 23}
{"binder": "B8", "Ka": "1.2e+07", "Kd": 84.1}
{"binder": "B9", "Ka": "3.32e+07", "Kd": 30.1}
